Measured values: patent publication US20130252983A1 (CORNELL UNIVERSITY, published 2013)

Target: mTOR (mammalian target of rapamycin) (UniProt Q9JLN9 1-2549)
Assay: co-immunoprecipitation of GAC proteins from Dbl-transformed cell lysates, Western blot with mTOR antibody
Text: To test this, Dbl-transformed cells were transiently transfected with wild-type GAC, GACΔC and GAC (S103A), and then these proteins were isolated from cell lysates by immunoprecipitation.

- binding result: no binding
B1: GAC (S103A), phospho-defective mutant of mouse glutaminase C (enzyme)
chain: HPWWGGGGRAKGPGAGGLSSSPSEILQELGKGGTPPQQQQQQQQQPGAAPPAAPGPKDSPGETDAFGNSEGKEMVAAGDNKIKQGLLPSLEDLLFYTIAEGQEKIPVHKFITALKSTGLRTSDPRLKECMDMLRLTLQTTSDGVMLDKDLFKKCVQSNIVLLTQAFRRKFVIPDFMSFTSHIDELYESAKKQSGGKVADYIPQLAKFSPDLWGVSVCTVDGQRHSIGDTKVPFCLQSCVKPLKYAIAVNDLGTEYVHRYVGKEPSGLRFNKLFLNEDDKPHNPMVNAGAIVVTSLIKQGVNNAEKFDYVMQFLNKMAGNEYVGFSNATFQSERESGDRNFAIGYYLKEKKCFPEGTDMVGILDFYFQLCSIEVTCESASVMAATLANGGFCPITGERVLSPEAVRNTLSLMHSCGMYDFSGQFAFHVGLPAKSGVAGGILLVVPNVMGMMCWSPPLDKMGNSVKGIHFCHDLVSLCNFHNYDNLRHFAKKLDPRREGGDQRHSFGPLDYESLQQELALKDTVWKKVSPESSDDTSTTVVYRMESLGERS
notes: Transiently expressed in Dbl-transformed NIH 3T3 cells and isolated by immunoprecipitation; not shown: V5 tag
